{"source": "patent US20180289803A1", "about": "(Eli Lilly, published 2018)", "molecular_target": "human PD-L1 (endogenous, in the mixed leukocyte reaction of human CD4 T-cells and monocyte-derived dendritic … (human, UniProt Q9NZQ7 19-290))", "assay": "cell-based or functional assay", "data": [{"binder": "Antibody C (bispecific antibody, human IgG1, kappa, lambda, L234A L235A) heavy 1: not shown light 1: not shown heavy 2: not shown light 2: DIVMTQSPSSLSASVGDGVTITCQASQDIYNYLNWYQQKPGKAPKLLIYYASSIVSGVPSRFSGSGSGTDFTLTISSLQPEDFATYYCQQASSFPPTFGQGTKLEIKRTVAAPSVFIFPPSDEQLKSGTARVGCLLNNFYPREAKVQWKVDNALQSGNSQESVTEQDSKDSTYSLRSALTLSKADYEKHKVYACEVTHQGLSSPVTKSFNRGEC", "values": [{"measurement": "IFN-γ levels in the mixed leukocyte reaction (MLR) at 4 nM antibody", "value": "~3", "unit": "fold"}, {"measurement": "IFN-γ levels in the mixed leukocyte reaction (MLR) at 8 nM antibody", "value": "~5", "unit": "fold"}]}]}
